Reference: patent publication US20140088006A1, “Stem Cell Mobilization and Tissue Repair and Regeneration” (Wellstat Therapeutics Corporation, priority 2011, published 2014)
Several values for one entry are separate records, joined by “and”; a condition that tells them apart may be missing. Identical values can stand only once.

Columns and labels:
[1] = tested on: white blood cells in peripheral blood; assay: White blood cell count in peripheral blood after single subcutaneous injection; type: in vivo, C57Bl6 mice; details: s.c. 5 mg/kg; 1 hr; pooled blood
Description: (§1) C57Bl6 male mice, from 8 weeks to 4 month of age, from Harlan were used. Mice received subcutaneous injections of saline, Compound X (50 μg/kg) or Compound X (250 μg/kg). After 1 and 4 hours, mice were anesthetized and blood was collected through the orbital sinus with heparinized capillary tubes. 20 μl of blood was removed from each tube for WBC counts;
(§2) In this experiment, C57Bl6 mice received subcutaneous injections of PBS, Compound X (250 μg/kg) or AMD3100 (5 mg/kg). After 1 hr blood was collected through the orbital sinus with heparinized capillary tubes. Blood from each group was pooled, counted and mononuclear cells were isolated by density gradient separation. Cells were washed, counted and plated at 100,000 per dish (5 dishes/group) for CFU-GEMM and CFU-GM colonies. CFU-GEMM colonies were scored on day 14, while CFU-GM colonies on day 7 after plating in MC3434 (Stem cell Technology).

[2] = tested on: hematopoietic stem cells (HSC) and their hematopoietic progenitors (HPC); assay: CFU-GM / CFU-GEMM colony assay of peripheral blood mononuclear cells after single subcutaneous injection; type: in vivo, C57Bl6 mice; details: s.c. 5 mg/kg
Description: as §1
Remaining blood from each group was pooled and mononuclear cells were isolated by density gradient separation. To enumerate HSC and HPC in peripheral blood cells were washed, counted plated in semi-solid Methylcellulose MC3434 (Stem cell technology) at 100,000 per dish (5 dishes/group) and placed in CO2 incubator at 37° C. Colony-forming unit-granulocyte erythroid macrophage megakaryocyte (CFU-GEMM) and Colony-forming unit-granulocyte macrophage (CFU-GM) were detected under inverted microscope 7 and 10 days after.
as §2

peripheral blood cells = assay: FACS phenotype of peripheral blood cells after single subcutaneous injection; type: in vivo, C57Bl6 mice; details: for Phenotype Lin−/Sca-1+ / Phenotype Lin−/Sca-1−: 5 mg/kg, mononuclear cells
Description: C57Bl6 male mice, from 8 weeks to 4 month of age, from Harlan were used. […] 20 μl of blood was removed from each tube for WBC counts;
200 μl of blood was used for FACS analysis of cells phenotypes: briefly 50 μl of blood was transferred to a 15 ml polypropylene tube containing 1 ml ACK lysis buffer and the tubes left at room temperature for 6 minutes. 50 μl of a 1:50 dilution of Fc block (Pharmingen 01241A) along with 2 ul of anti-CD19FITC (Pharmingen 09654A) and 2 μl of anti-Gr-1PE (Pharmingen 01215A) was added and the tubes left at room temperature for 30 minutes protected from light. The cells were washed with 3 ml FACS buffer, resuspended in 300 μl FACS buffer and kept on ice, protected from light until acquired on the FACSCalibur.
For flow cytometry analysis the blood was stained with antibodies and a phenotype determined by FACS as described before. In addition to the whole blood FACS phenotyping, Ficolled blood was also stained to monitor the Lin−/Sca+ phenotype. The cells were washed with 3 ml FACS buffer, resuspended in 300 μl FACS buffer and kept on ice, protected from light until acquired on the FACSCalibur

[3] = tested on: human umbilical cord blood CD34+ cells; assay: Transwell migration of CD34+ cells toward SDF-1α; type: cell-based; details: 10 μg/mL; control and Compound X treated cells; 100 ng/mL SDF-1α; 4 hours
Description: CD34^+ cell migration toward 100 ng/mL SDF-1α in a Corning Transwell device (24 well format, 5 μm pore size, polycarbonate membrane) was studied with and without Compound X and in the presence or absence of either anti-CXCR4 antibody or the CXCR4 antagonist AMD3100.
The CD34^+ population of cells from human umbilical cord blood was obtained from Lonza, defrosted and expanded ex vivo with cytokine cocktail for 6 days according to standard procedures. Briefly, 10 wells of two 12 well dishes were seeded at a density of 8×10^4 cells per well in 2 mL of CellGenix serum free growth medium (SCGM). Cells were allowed to expand in a 37° C. incubator (5% CO2, 86% RH) for 6 days. During the expansion, the 10 wells of one of the two plates received treatments of Compound X to a final concentration of 5 ng/mL (10 μL from freshly prepared 1 μg/mL stock in SCGM) at 24 hours and 72 hours after initiation of the culture.
3 hours prior to the start of the migration assay, both control and Compound X expanded cells were pulsed with either 0, 5 ng/mL or 5 μg/mL Compound X. Migration assay was performed according to the method described (Tavor et al. 2005). Cells were centrifuged for 5 minutes at 1100 RPM and resuspended at a density of 2×10^6 cells/mL in CellGenix SCGM serum free medium containing 1% Fraction V BSA either in the presence or absence of 5 ng/mL or 5 μg/mL Compound X for 3 hours. The feeder tray (bottom) was prepared with 600 μL of serum free SCGM supplemented with 1% BSA in the presence or absence of SDF-1α. All treatments were conducted in triplicate. The wells of the migration chamber (top) received 100 μL of cells from the 2×10^6 cells/mL suspensions, preincubated with 5 ng/mL or 5 μg/mL Compound X or Control. All treatments were conducted in triplicates. The plates were placed in a 37° C. incubator (5% CO2, 86% RH) and cells were allowed to migrate for 4 hours. […]
The cells were thawed at room temperature. […] 150 μL of the resulting cell lysates were transferred to a new 96 well plate and the fluorescence was read on a […] SpectraMax M2 fluorimeter (ex 485, em 538). […]

[4] = tested on: white blood cells in peripheral blood; assay: White blood cell count after 4 daily injections of G-CSF and Compound X; type: in vivo, mice; details: 5 μg/mouse each agent s.c. daily for 4 days, pooled blood
Description: Compound X and Neupogen (rG-CSF Amgen, lot# P043601) were diluted in PBS. Mice received subcutaneous injections of PBS, Compound X (5 μg/mouse), G-CSF (5 μg/mouse) or Compound X (5 μg/mouse)+G-CSF (5 μg/mouse) for four consecutive days. On the last day of injections, 1 hour post injections, blood was collected through the orbital sinus with heparinized capillary tubes. Blood was pooled from 3 mice/group and white blood cell counts were obtained. Mononuclear cells were isolated by density gradient separation from pooled blood. Cells were washed, counted and plated at 100,000 per dish (5 dishes/group) for CFU-mix and CFU-GM colonies. Blood was also collected and processed on day 8 for colony assay. Results are shown in Tables 10, 11, and 12 and in FIG. 5.

HSC and HPC = assay: CFU-GM / CFU-GEMM colony assay after 4 daily injections of G-CSF and Compound X; type: in vivo, mice; details: for CFU-GEMM numbers, MEAN / CFU-GM numbers, MEAN / CFU-GEMM numbers / CFU-GM numbers: 5 μg/mouse each agent s.c. daily for 4 days; for CFU-GEMM numbers / CFU-GM numbers: individual dishes; for Fold increase in number of CFU-GM / Fold increase in number of CFU-Mix (CFU-GEMM): multiple injections, 5 μg/mouse each agent
Description: Compound X and Neupogen (rG-CSF Amgen, lot# P043601) were diluted in PBS. Mice received subcutaneous injections of PBS, Compound X (5 μg/mouse), G-CSF (5 μg/mouse) or Compound X (5 μg/mouse)+G-CSF (5 μg/mouse) for four consecutive days. […] Mononuclear cells were isolated by density gradient separation from pooled blood. […] Blood was also collected and processed on day 8 for colony assay. Results are shown in Tables 10, 11, and 12 and in FIG. 5.

[5] = 1 hour, individual dishes, 5 mg/kg

**Q.** For `c1cc(CN2CCCNCCNCCCNCC2)ccc1CN1CCCNCCNCCCNCC1` [AMD3100, reference compound], which “White blood cell count: Cell Count” value [1] is on record?
**A.** 1.14e+07 mL⁻¹

**Q.** What about the “CFU-GEMM, MEAN” value ([2]; 1 hour) of the same molecule?
**A.** 6.2 per 100,000 cells

**Q.** And the “CFU-GM (day 7), MEAN” value ([2]; 1 hour)?
**A.** 20.6 per 100,000 cells

**Q.** And the CFU-GEMM [2, 5]?
**A.** 5 per 100,000 cells and 4 per 100,000 cells (2×) and 11 per 100,000 cells and 7 per 100,000 cells

**Q.** What about the “CFU-GM (day 7)” value [2, 5] of the same molecule?
**A.** 19 per 100,000 cells (3×) and 26 per 100,000 cells and 20 per 100,000 cells

**Q.** And the “number of circulating committed precursors of granulocytes and macrophages—CFU-GM” value ([2]; 1 hr)?
**A.** substantial increase

**Q.** And the “increase of CFU-GEMM number in peripheral blood” value ([2]; 1 hr, vs PBS)?
**A.** 6.2 times

**Q.** What about the “Phenotype Lin−/Sca-1+” value (peripheral blood cells; 1-hour) of the same molecule?
**A.** 0.6%

**Q.** And the “Phenotype Lin−/Sca-1−” value (peripheral blood cells; 1-hour)?
**A.** 2.8%

**Q.** What about the “Phenotype Lin−/Sca-1+” value (peripheral blood cells; 30-min) of the same molecule?
**A.** 0.5%

**Q.** And the “Phenotype Lin−/Sca-1−” value (peripheral blood cells; 30-min)?
**A.** 2.1%

**Q.** And the “mobilization of lineage negative progenitors” value (peripheral blood cells; s.c. 5 mg/kg, 30 min and 1 hr)?
**A.** up to 3 times

**Q.** What about the “CD34+ cell Transwell migration toward SDF-1α” value [3] of the same molecule?
**A.** strong inhibition

B1: G-CSF: Neupogen (rG-CSF Amgen), most common mobilizing agent for clinical uses (protein, chains of the INN, looked up)
chain: MTPLGPASSLPQSFLLKCLEQVRKIQGDGAALQEKLCATYKLCHPEELVLLGHSLGIPWAPLSSCPSQALQLAGCLSQLHSGLFLYQGLLQALEGISPELGPTLDTLQLDVADFATTIWQQMEELGMAPALQPTQGAMPAFASAFQRRAGGVLVASHLQSFLEVSYRVLRHLAQP
**Q.** B1 was tested. Which “White Blood Cell counts: Cell Count” value ([4]; Day 4, 1 hour post injection) did it give?
**A.** 14.6 ×10^6

**Q.** And the “White Blood Cell counts: Cell Count” value ([4]; Day 8)?
**A.** 5.0 ×10^6

**Q.** And the “CFU-GEMM numbers, MEAN” value (HSC and HPC; Day 4)?
**A.** 17.6 per 100000 mononuclear cells

**Q.** And the “CFU-GM numbers, MEAN” value (HSC and HPC; Day 4)?
**A.** 60.6 per 100000 mononuclear cells

**Q.** And the CFU-GEMM numbers (HSC and HPC; Day 4)?
**A.** 20 per 100000 mononuclear cells and 12 per 100000 mononuclear cells (2×) and 15 per 100000 mononuclear cells and 29 per 100000 mononuclear cells

**Q.** And the CFU-GM numbers (HSC and HPC; Day 4)?
**A.** 62 per 100000 mononuclear cells and 58 per 100000 mononuclear cells and 63 per 100000 mononuclear cells and 52 per 100000 mononuclear cells and 68 per 100000 mononuclear cells

**Q.** What about the “CFU-GEMM numbers, MEAN” value (HSC and HPC; Day 8) of the same molecule?
**A.** 4 per 100000 mononuclear cells

**Q.** And the “CFU-GM numbers, MEAN” value (HSC and HPC; Day 8)?
**A.** 15.0 per 100000 mononuclear cells

**Q.** And the CFU-GEMM numbers (HSC and HPC; Day 8)?
**A.** 5 per 100000 mononuclear cells and 4 per 100000 mononuclear cells (3×) and 3 per 100000 mononuclear cells

**Q.** And the CFU-GM numbers (HSC and HPC; Day 8)?
**A.** 12 per 100000 mononuclear cells and 15 per 100000 mononuclear cells and 11 per 100000 mononuclear cells and 21 per 100000 mononuclear cells and 16 per 100000 mononuclear cells

**Q.** And the “Fold increase in number of CFU-GM” value (HSC and HPC; Day 4)?
**A.** 12 Fold

**Q.** And the “Fold increase in number of CFU-Mix (CFU-GEMM)” value (HSC and HPC; Day 4, 1 hr after the last injection)?
**A.** 12.5 Fold

**Q.** And the “Fold increase in number of CFU-GM” value (HSC and HPC; Day 8)?
**A.** 6 Fold

**Q.** And the “Fold increase in number of CFU-Mix (CFU-GEMM)” value (HSC and HPC; Day 8)?
**A.** 5 Fold
